Blank lines part the entries; values can stand above or below the molecule they belong to.
Columns and labels:
[1] = target: N.crassa E3-binding protein in the native pyruvate dehydrogenase complex (N.crassa); assay: cryo-EM structure; native PDC data EMPIAR-10489 reprocessed; symmetry-expanded consensus alignments only, C3 symmetry, 4.1 Å
[2] = target: the molecule itself; assay: cryo-EM structure; recombinant co-expressed CTD:CBD sub-complex (tE2/PX261); symmetry expansion, signal subtraction and classification of E2 trimers, C3 symmetry, 3.2 Å

stoichiometry N [1]: 3
Molecule: N.crassa E3-binding protein in the native pyruvate dehydrogenase complex (natural protein)

B1: N.crassa E2 C-terminal catalytic transacetylase domain (residues 225-458) (domain or fragment, UniProt P20285 225-458, looked up)
chain: AAYTDVPISGMRKTIAARLKESVTENPHFFVSTNLSVSKLLKLRQALNSSADGRYKLSVNDFLIKAMGIASKRVPTVNSSWRDGVIRQFETVDVSVAVATPNGLITPIVKGVEGKGLESISAAVKELAKKARDGKLKPEEYQGGSISISNMGMNPAVQSFTAIINPPQAAILAVGAPQKVAVPVENEDGTTGVSWDEQIIVTASFDHKVVDGAVGAEWIRELKKVIENPLELLL
notes: Forms trimers that assemble into the icosahedral PDC core; also called E2 CTD; CTD; source: E. coli Rosetta2 (DE3), co-expressed with his-tagged E3BP 261-426 from the petDuet vector, purified (Ni-NTA, SEC)
binding result [2]: binds

B2: N.crassa E3-binding protein core-binding domain (residues 261-426), his-tagged (domain or fragment, UniProt Q7RWS2 261-426, looked up)
chain: PAPPPVAVVTAPISLSAAIDVQNKLHKTIGVFLPLSTFITRATEIANQKLPLPANYQPTADELFNQVLGLDKVTRKESRGSYTPTFGSFVAPQRAARKADIIDILAAPSTRVAASAQSKSAAPGLTTSGPNVFSLQVPKSEEKRAQAFLQKMKLVLEQEPDKLVRA
notes: residues 265-346 and 390-425 were built; Trimer inside the E2 core by the cryo-EM reconstruction; also called E3BP CBD; CBD; source: E. coli Rosetta2 (DE3), co-expressed with E2 225-458 from the petDuet vector, purified (Ni-NTA, SEC)
stoichiometry N [2]: 3

Reference: publication PMC10156792, “The structure and evolutionary diversity of the fungal E3-binding protein” (Communications Biology, 2023)
